Data on 4 sequences can be found in PMC7266990.

What all share (conditions): SPR per cited protocol (Gsaller 2016; buffer not given), CBC 3.13-200 nM, 1:1 model with mass transport; SEC: 20 mM Tris/HCl, 150 mM NaCl, 1 mM DTT, pH 7.5
In data set [1] the target is Afu_CBC HapE P88L (core) P88L (Aspergillus fumigatus) (UniProt Q4WDM9). The data set is described as follows: SPR. Background: In SPR one partner is held on a chip, and binding of the other changes the refractive index at the surface.
The target in data set [2] is Afu_CBC HapE P88L (SPR co-injection construct);HapX bZIP peptide P88L (Aspergillus fumigatus;Aspergillus fumigatus) (UniProt Q4WDM9+Q4WER3). The data set is described as follows: SPR co-injection.
Data set [3] has as its target An_CBC HapE P88L (Aspergillus nidulans) (UniProt G5EAZ0+Q5B5Z6+Q5AYY8). The data set can be described thus: SPR.
The target in data set [4] is An_CBC wt (HapB/HapC/HapE core) (Aspergillus nidulans) (UniProt G5EAZ0+Q5B5Z6+Q5AYY8). The data set is described as follows: SPR.

Turning to “AAATCCACCAATCAACGCCTCCGTG (double strand) [Afu_cccA 25 bp SPR duplex]”, the Kd in data set [1] was 429 nM. “AAATCCACCAATCAACGCCTCCGTGATTGTCAGCAAT (double strand) [Afu_cccA SPR co-injection duplex (CBC and HapX sites)]”: the binding signal (fold half-life vs binary P88L CBC-DNA) in data set [2] was found to be 7. In the case of “ACCCGAGCCAATCAGAGCGAAGTGA (double strand) [An_cccA 25 bp SPR duplex]”, the Kd in data set [3] and in data set [1] was 2000 nM each time. For the sequence “GAATTGACCAATCAGAGGTAGGATG (double strand) [An_cycA 25 bp SPR duplex]”, the Kd in data set [4] came out at 0.83 nM; in data set [3], 116 nM; in data set [1] it was 100 nM.

For orientation: Kd means the concentration at which binding is half-saturated. High values mean weaker binding, low ones tighter binding.
